In PMC11441495 (Proceedings of the National Academy of Sciences of the …, 2024):

B1: full-length human vinculin autoinhibition-disruption mutant VK3E (natural protein, UniProt P18206-2 1-1066, looked up)
chain: MPVFHTRTIESILEPVAQQISHLVIMHEEGEVDGKAIPDLTAPVAAVQAAVSNLVRVGKETVQTTEDQILKRDMPPAFIKVENACTKLVQAAQMLQSDPYSVPARDYLIDGSRGILSGTSDLLLTFDEAEVRKIIRVCKGILEYLTVAEVVETMEDLVTYTKNLGPGMTKMAKMIDERQQELTHQEHRVMLVNSMNTVKELLPVLISAMKIFVTTKNSKNQGIEEALKNRNFTVEKMSAEINEIIRVLQLTSWDEDAWASKDTEAMKRALASIDSKLNQAKGWLRDPSASPGDAGEQAIRQILDEAGKVGELCAGKERREILGTCKMLGQMTDQVADLRARGQGSSPVAMQKAQQVSQGLDVLTAKVENAARKLEAMTNSKQSIAKKIDAAQNWLADPNGGPEGEEQIRGALAEARKIAELCDDPKERDDILRSLGEISALTSKLADLRRQGKGDSPEARALAKQVATALQNLQTKTNRAVANSRPAKAAVHLEGKIEQAQRWIDNPTVDDRGVGQAAIRGLVAEGHRLANVMMGPYRQDLLAKCDRVDQLTAQLADLAARGEGESPQARALASQLQDSLKDLKARMQEAMTQEVSDVFSDTTTPIKLLAVAATAPPDAPNREEVFDERAANFENHSGKLGATAEKAAAVGTANKSTVEGIQASVKTARELTPQVVSAARILLRNPGNQAAYEHFETMKNQWIDNVEKMTGLVDEAIDTKSLLDASEEAIKKDLDKCKVAMANIQPQMLVAGATSIARRANRILLVAKREVENSEDPKFREAVKAASDELSKTISPMVMDAKAVAGNISDPGLQKSFLDSGYRILGAVAKVREAFQPQEPDFPPPPPDLEQLRLTDELAPPKPPLPEGEVPPPRPPPPEEKDEEFPEQKAGEVINQPMMMAARQLHDEARKWSSKGNDIIAAAKRMALLMAEMSRLVRGGSGTEEALIQCAKDIAKASDEVTRLAKEVAKQCTDKRIRTNLLQVCERIPTISTQLEILSTVKATMLGRTNISDEESEQATEMLVHNAQNLMQSVKETVREAEAASIKIRTDAGFTLRWVRKTPWYQ
B2: human β-catenin (natural protein, UniProt P35222 1-781, looked up)
chain: MATQADLMELDMAMEPDRKAAVSHWQQQSYLDSGIHSGATTTAPSLSGKGNPEEEDVDTSQVLYEWEQGFSQSFTQEQVADIDGQYAMTRAQRVRAAMFPETLDEGMQIPSTQFDAAHPTNVQRLAEPSQMLKHAVVNLINYQDDAELATRAIPELTKLLNDEDQVVVNKAAVMVHQLSKKEASRHAIMRSPQMVSAIVRTMQNTNDVETARCTAGTLHNLSHHREGLLAIFKSGGIPALVKMLGSPVDSVLFYAITTLHNLLLHQEGAKMAVRLAGGLQKMVALLNKTNVKFLAITTDCLQILAYGNQESKLIILASGGPQALVNIMRTYTYEKLLWTTSRVLKVLSVCSSNKPAIVEAGGMQALGLHLTDPSQRLVQNCLWTLRNLSDAATKQEGMEGLLGTLVQLLGSDDINVVTCAAGILSNLTCNNYKNKMMVCQVGGIEALVRTVLRAGDREDITEPAICALRHLTSRHQEAEMAQNAVRLHYGLPVVVKLLHPPSHWPLIKATVGLIRNLALCPANHAPLREQGAIPRLVQLLVRAHQDTQRRTSMGGTQQQFVEGVRMEEIVEGCTGALHILARDVHNRIVIRGLNTIPLFVQLLYSPIENIQRVAAGVLCELAQDKEAAEAIEAEGATAPLTELLHSRNEGVATYAAAVLFRMSEDKPQDYKKRLSVELTSSLFRTEPMAWNETADLGLDIGAQGEPLGYRQDDPSYRSFHSGGYGQDALGMDPMMEHEMGGHHPGADYPVDGLPDLGHAQDLMDGLPPGDSNQLAWFDTDL
B3: full-length human αE-catenin (natural protein, UniProt P35221 1-906, looked up)
chain: MTAVHAGNINFKWDPKSLEIRTLAVERLLEPLVTQVTTLVNTNSKGPSNKKRGRSKKAHVLAASVEQATENFLEKGDKIAKESQFLKEELVAAVEDVRKQGDLMKAAAGEFADDPCSSVKRGNMVRAARALLSAVTRLLILADMADVYKLLVQLKVVEDGILKLRNAGNEQDLGIQYKALKPEVDKLNIMAAKRQQELKDVGHRDQMAAARGILQKNVPILYTASQACLQHPDVAAYKANRDLIYKQLQQAVTGISNAAQATASDDASQHQGGGGGELAYALNNFDKQIIVDPLSFSEERFRPSLEERLESIISGAALMADSSCTRDDRRERIVAECNAVRQALQDLLSEYMGNAGRKERSDALNSAIDKMTKKTRDLRRQLRKAVMDHVSDSFLETNVPLLVLIEAAKNGNEKEVKEYAQVFREHANKLIEVANLACSISNNEEGVKLVRMSASQLEALCPQVINAALALAAKPQSKLAQENMDLFKEQWEKQVRVLTDAVDDITSIDDFLAVSENHILEDVNKCVIALQEKDVDGLDRTAGAIRGRAARVIHVVTSEMDNYEPGVYTEKVLEATKLLSNTVMPRFTEQVEAAVEALSSDPAQPMDENEFIDASRLVYDGIRDIRKAVLMIRTPEELDDSDFETEDFDVRSRTSVQTEDDQLIAGQSARAIMAQLPQEQKAKIAEQVASFQEEKSKLDAEVSKWDDSGNDIIVLAKQMCMIMMEMTDFTRGKGPLKNTSDVISAAKKIAEAGSRMDKLGRTIADHCPDSACKQDLLAYLQRIALYCHQLNICSKVKAEVQNLGGELVVSGVDSAMSLIQAAKNLMNAVVQTVKASYVASTKYQKSQGMASLNLPAVSWKMKAPEKKPLVKREKQDETQTKIKRASQKKHVNPVQALSEFKAMDSI
B4: cytoplasmic domain of human E-cadherin (EcadCT, residues 731 to 882) (domain or fragment)
chain: not shown

Columns and labels:
Test in all cases: reconstitution of the complex from purified proteins
[1] = molecular target: α-catenin–β-catenin–E-cadherin cytoplasmic tail complex (ABE complex) (human, UniProt P35221 1-906; P35222 1-781; P12830 731-882)
[2] = molecular target: B3
[3] = molecular target: B1
human β-catenin = molecular target: B2

Sequence of α-catenin–β-catenin–E-cadherin cytoplasmic tail complex (ABE complex) (P12830 731-882, one chain of several): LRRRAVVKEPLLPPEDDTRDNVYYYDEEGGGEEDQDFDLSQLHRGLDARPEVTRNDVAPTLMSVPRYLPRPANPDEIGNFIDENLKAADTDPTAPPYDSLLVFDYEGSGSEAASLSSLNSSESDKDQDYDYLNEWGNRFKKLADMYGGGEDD

Binder: B1
- binding result [1]: binds

Binder: B2
- binding result [2]: binds

Binder: B3
- binding result [3]: binds

Binder: B4
- binding result (human β-catenin): binds
